In the RNAGym collection of RNA variant scans (doi:10.1073/pnas.2313332121):

B1: TPR t1 (parent)
chain: GACCAAUCUGCCCUCAGAGCUCGAGAACAUCUUCGGAUGCAGAGGAGGCAGGCUUCGGUGGCGCGAUAGCGCCAACGUCCUCAACCUCCAAUGCAUCCCACCACAUGAUGAUGCCUGAAGAGCCUUGGUUUUUUG

Variants of: B1
Test: polymerase ribozyme fitness, log enrichment relative to wild type (log ratio); higher = more active; in vitro selection for triplet polymerase activity
Procedure, shortened: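 Fitness measures genotype enrichment against wild-type enrichment on a logarithmic scale, with inverse-variance-weighted averaging of replicates. The logarithm is base 2, and genotypes were kept only with ≥10 input reads and ≥1 read per output in Illumina sequencing. The sequenced libraries came from one triplicate in vitro selection round, including frozen incubation at −7 °C, of PCR-built, transcribed mutant libraries of each subunit of a heterodimeric triplet polymerase ribozyme.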

Variant	polymerase ribozyme fitness (log ratio)
G10A G36U G44U G61U C88U A95G U96A G120A	-7.26
U9G A83G G93A C102A C123U	-2.93
U9G C53U A95C C115A	0.969
G10A G45C C56G G63A	-4.08
U9C C34U C56G G77A U106A G113A A121G	-3.53
U9A U30C G44A G57U G60A U112G U125A	-5.02
U9C C11U G71A A111C	-1.02
C8U G61A	0.644
U9C C12G U55C A83G G93A C102U	-5.25
C8U U92A	-2.72
U9A C62A C85G U131C	-1.16
G10A C11A U14G U54C C56U U81A	-2.09
U9G C15A G58A C97U U116G U129G	-5.21
U9G C49A C104A	-1.57
U9A C13G A26C G63C G110A	-5.86
U9A C20G U96G C124U	-3.29
G10C A37U G63U U96A C124U U129G	-4.44
G10C A27U G39U	-3.03
C8U G117A A119U C123U U133G	-1.22
G10A U14A C56G	-3.83
G10A C53A	-0.00777

Variant	polymerase ribozyme fitness (log ratio)
U9A C13U C79U C114A	0.44
U9C G17A A43U A50U A74C G120U	-4.05
G10A U132A	0.124
G10A U81A	-0.546
U9A C13G G35A	-3.79
G10A C15A C73U	-2.06
U9C A41U C70A U125A	-4.15
G10A C28G G47U U59G	-5
U9G A37U G39A G45U A46U C94G	-5.9
U9C G36U C104A C115A	-1.3
G10A C15U G17A A41U C72U A105U G120A G122A	-5.83
U9C C31U A37U	-5.02
U9A G42A U87C C101A G120A	-1.63
U9A G58A G61A C85A G113A	-0.721
U9A G44A G69A C72U U87C	-3.54
G10A C12U G36U C53A	-0.13
G10A A37G G47U U59A G117U G122U U125G	-5.7
G10A G39U G42A C124A	-0.542
U9G U38A G47C C49A	-3.06
U9G G36U C70U A74U	-1.42
G10A C20U	-1.18

Variant	polymerase ribozyme fitness (log ratio)
U9G G65U	-5.74
C8U U21A U30C C56U	-3.2
G10A C22G G57C	-2.92
U9A G63U G120C	0.699
U9C G45A C124U U126A U133A	-0.505
U9A G71A C85A G93A C102A	-3.84
U9G G17U G60C U96C C104U G117A	-3.16
U9C C15G U106A	-1.27
U9A A18U A41G U92A	-2.99
C8U U30C C49U C124G U133G	-3.25
U9C G39A A41C C72G A84C C86A C99A A121U	-6.53
G10C C11A C31A G47U G107U G113A	-2.42
U9C G17U C20G G25C C115U	-6.98
U9A U32A C62U C114A	-4.44
U9G G10U C94U	-0.059
U9G A105U G113A	-5.18
U9C U54A C101U	0.158
U9G G57A U78A A100C	-1.29
U9C G47U G63U	-1.41
U9G G52U C70G G122A	-4.3
U9G G45A G93U C114A	-2.75

Variant	polymerase ribozyme fitness (log ratio)
G10A C40U A46C U130G	-2.46
G10A G63A C86U	-1.07
G10A A50G	0.0587
G10A C70G	-2.45
G10A C70A	-1.32
C8U U21C G122A	-0.0897
U9A A16U A24C U33G G36A C115U	-7.16
U9G G36C C56U C76U C85U A118U	-2.3
G10A C13A C49G A84C	-0.63
U9A C86G	0.0417
U9G G10C C11A C15A A37G C49G C85U A95U C123U	-3.19
U9A A24G G42A G52C C72G	-3.17
U9A A43U C70U C82A U87C U131A	-1.6
U9A C13G A46G G107C G135U	-7.09
U9A U55G C99U	-2.44
C8U U129G U133A	-1.94
U9A C56A	0.00188
U9A C56U	0.248
U9G U92G	-1.92
C8U U38G G51A	-3.4
